The source of these data is PMC11774777, “A PDZ-kinase allosteric relay mediates Par complex regulator exchange” (The Journal of Biological Chemistry, 2024).

One test addresses T1, GST-fused Par-6 CRIB-PDZ (UniProt O97111 130-255).
T1 construct: Par-6, CRIB motif and PDZ domain; also called GST Par-6 CRIB-PDZ
T1 sequence (looked up): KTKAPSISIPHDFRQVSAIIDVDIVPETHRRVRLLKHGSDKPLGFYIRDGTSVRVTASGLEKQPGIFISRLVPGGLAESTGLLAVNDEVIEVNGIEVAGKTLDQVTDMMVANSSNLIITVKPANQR
In words: pull-down; GST-Par-6 CRIB-PDZ on glutathione resin, Par complex ΔCRIB-PDZ with soluble Par-3 BR-PDZ2 added; same buffer, 60 min at RT; Coomassie, normalized band intensity of aPKC. The note with it: both partners purified.

For test [1], the target named is T2, GST-fused Par-3 PDZ2 with its associated basic region (BR-PDZ2) (UniProt O96782 1-1464).
T2 chain: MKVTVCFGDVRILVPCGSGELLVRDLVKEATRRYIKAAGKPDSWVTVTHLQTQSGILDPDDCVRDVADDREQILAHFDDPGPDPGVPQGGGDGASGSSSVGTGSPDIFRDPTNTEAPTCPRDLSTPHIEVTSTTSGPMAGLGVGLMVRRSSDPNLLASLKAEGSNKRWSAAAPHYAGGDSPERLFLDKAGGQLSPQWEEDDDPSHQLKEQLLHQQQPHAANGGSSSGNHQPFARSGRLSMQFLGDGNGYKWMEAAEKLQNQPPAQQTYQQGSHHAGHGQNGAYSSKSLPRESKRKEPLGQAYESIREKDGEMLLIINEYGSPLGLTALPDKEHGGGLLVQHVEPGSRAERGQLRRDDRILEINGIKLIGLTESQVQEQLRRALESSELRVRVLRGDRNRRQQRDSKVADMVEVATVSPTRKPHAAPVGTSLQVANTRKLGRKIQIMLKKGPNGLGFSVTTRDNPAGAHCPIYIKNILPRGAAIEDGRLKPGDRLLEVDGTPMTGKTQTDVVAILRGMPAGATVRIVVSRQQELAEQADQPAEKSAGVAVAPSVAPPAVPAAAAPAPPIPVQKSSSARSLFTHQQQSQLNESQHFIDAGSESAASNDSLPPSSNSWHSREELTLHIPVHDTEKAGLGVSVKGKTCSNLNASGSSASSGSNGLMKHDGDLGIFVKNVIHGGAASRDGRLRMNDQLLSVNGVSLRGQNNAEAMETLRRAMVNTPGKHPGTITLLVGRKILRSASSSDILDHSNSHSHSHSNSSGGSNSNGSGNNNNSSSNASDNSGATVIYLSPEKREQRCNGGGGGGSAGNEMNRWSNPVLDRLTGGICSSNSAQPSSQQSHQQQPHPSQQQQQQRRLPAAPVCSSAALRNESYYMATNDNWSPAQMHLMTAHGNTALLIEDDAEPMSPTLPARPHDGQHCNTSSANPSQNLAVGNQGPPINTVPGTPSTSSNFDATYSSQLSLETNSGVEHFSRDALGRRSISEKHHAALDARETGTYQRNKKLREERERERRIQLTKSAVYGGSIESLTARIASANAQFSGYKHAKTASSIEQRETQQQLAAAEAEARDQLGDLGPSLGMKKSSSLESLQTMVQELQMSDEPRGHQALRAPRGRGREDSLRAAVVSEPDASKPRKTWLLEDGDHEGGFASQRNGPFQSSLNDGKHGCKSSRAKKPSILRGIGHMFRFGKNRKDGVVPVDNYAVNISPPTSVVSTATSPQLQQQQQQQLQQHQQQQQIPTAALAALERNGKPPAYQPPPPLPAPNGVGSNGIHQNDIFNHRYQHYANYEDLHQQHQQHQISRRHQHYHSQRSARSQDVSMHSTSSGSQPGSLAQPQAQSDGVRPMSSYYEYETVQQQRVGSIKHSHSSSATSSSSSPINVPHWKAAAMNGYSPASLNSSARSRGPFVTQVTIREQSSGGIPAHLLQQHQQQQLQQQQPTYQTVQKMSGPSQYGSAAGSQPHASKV
Description: with Par-6 CRIB-PDZ added in trans.

The target of test [2] is T2, GST-fused Par-3 PDZ2 with its ….

Read-outs that look alike come from different tables or passages of the source.

B1: Par complex ΔCRIB-PDZ (full-length aPKC plus the Par-6 PB1 domain) (complex)
chain 1: MQKMPSQILNDGSSVSLNSASMNMANTPNSITVKTAYNGQIIITTINKNISYEELCYEIRNICRFPLDQPFTIKWVDEENDPCTISTKMELDEAIRLYEMNFDSQLVIHVFPNVPQAPGLSCDGEDRSIYRRGARRWRKLYRVNGHIFQAKRFNRRAFCAYCQDRIWGLGRQGFKCIQCKLLVHKKCHKLVQKHCTDQPEPLVKERAEESSDPIPVPLPPLPYEAMSGGAEACETHDHAHIVAPPPPEDPLEPGTQRQYSLNDFELIRVIGRGSYAKVLMVELRRTRRIYAMKVIKKALVTDDEDIDWVQTEKHVFETASNHPFLVGLHSCFQTPSRLFFVIEFVRGGDLMYHMQRQRRLPEEHARFYAAEISLALNFLHEKGIIYRDLKLDNVLLDHEGHIKLTDYGMCKEGIRPGDTTSTFCGTPNYIAPEILRGEDYGFSVDWWALGVLLYEMLAGRSPFDLAGASENPDQNTEDYLFQVILEKTIRIPRSLSVRAASVLKGFLNKNPADRLGCHRESAFMDIVSHPFFKNMDWELLERKQVTPPFKPRLDSDRDLANFPPEFTGEAVQLTPDDDHVIDNIDQSEFEGFEYVNPLLMSLEDCV
chain 2: MSKNKINTTSATAASDTNLIEVKSKFDAEFRRWSFKRNEAEQSFDKFASLIEQLHKLTNIQFLILYIDPRDNDLLPINNDDNFGRALKTARPLLRVIVQRKDDLNEYSGFGTMKPRNLIGSILMGHTPV
notes: atypical PKC (aPKC), full length; Par-6, PB1 domain; The complex was His-purified; also called full-length aPKC with Par-6 PB1; source: HEK 293F, co-transfected, purified (cobalt resin, anion exchange)
A word on the Kd: it is the concentration at which binding is half-saturated. A higher Kd goes with a looser complex. As to B1, the “fold increase of binding with Par-3 PDZ2 against without Par-3” value with GST-fused Par-6 CRIB-PDZ is above 20 fold. For the same molecule, the Kd in test [1] was found to be 11.3 µM; in test [2], 161 µM.
